Experimental data reported in paper doi:10.1101/2024.03.18.585568 (bioRxiv, 2024).

How the values were obtained:
[1] = target: T1, apoGAD65 (glutamate decarboxylase GAD65, residues 84-585, purified without added PLP) (human, UniProt Q05329); assay: HDX-MS
[2] = target: T1, apoGAD65 (glutamate decarboxylase …); assay: SPR

T1 sequence (Q05329 84-585): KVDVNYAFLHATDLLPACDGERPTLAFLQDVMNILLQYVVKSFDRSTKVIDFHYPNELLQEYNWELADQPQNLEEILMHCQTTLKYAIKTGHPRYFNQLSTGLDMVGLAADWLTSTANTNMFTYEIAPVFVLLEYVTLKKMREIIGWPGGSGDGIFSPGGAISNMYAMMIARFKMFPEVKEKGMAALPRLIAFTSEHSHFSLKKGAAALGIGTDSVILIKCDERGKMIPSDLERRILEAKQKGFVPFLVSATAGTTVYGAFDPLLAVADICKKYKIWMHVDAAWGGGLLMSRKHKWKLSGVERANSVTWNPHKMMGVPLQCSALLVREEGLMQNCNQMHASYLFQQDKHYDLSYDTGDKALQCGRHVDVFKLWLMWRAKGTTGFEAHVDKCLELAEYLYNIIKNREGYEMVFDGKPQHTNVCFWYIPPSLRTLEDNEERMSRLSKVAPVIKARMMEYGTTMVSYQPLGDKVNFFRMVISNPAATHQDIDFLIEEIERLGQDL

binding result [1] | binding result [2] | Binder
binds | – | b96.11 Fab (recombinant Fab based on the human APS-2-associated autoantibody b96.11) (Fab, V domains shown) VH: EVQLVESGGGLVQPGRSLRLSCSASGFTFGDYAMSWFRLAPGKGLEWVGLIKSRAIDGTPQYAASVKGRFTISRDDSNSIAYLQMNSLTTEDTAIYYCARDFYDFWNEFSHRTFDFWGQGTLVTVSS VL: QSALTQPASASGSPGQSVTITCTGSSSDVGGYKYVSWYQHHPGKAPKLMIYEVSKRPSGVPDRFSGSKSGNMASLTVSGLQAEDEADYYCSSYAGSYNFYVFGNGTKVTVL
– | binds | b96.11 IgG (purified monoclonal b96.11 IgG antibody) (antibody, V domains shown) VH: EVQLVESGGGLVQPGRSLRLSCSASGFTFGDYAMSWFRLAPGKGLEWVGLIKSRAIDGTPQYAASVKGRFTISRDDSNSIAYLQMNSLTTEDTAIYYCARDFYDFWNEFSHRTFDFWGQGTLVTVSS VL: QSALTQPASASGSPGQSVTITCTGSSSDVGGYKYVSWYQHHPGKAPKLMIYEVSKRPSGVPDRFSGSKSGNMASLTVSGLQAEDEADYYCSSYAGSYNFYVFGNGTKVTVL
